# Laboratory results as given in article PMC6451123, “The G3-U70-independent tRNA recognition by human mitochondrial alanyl-tRNA synthetase” (Nucleic Acids Research, 2019).
# Target: the molecule itself
# Experiment: SEC; gel filtration of the purified enzyme; apparent molecular mass from the elution volumes of three standard proteins (apoferritin 443 kDa, yeast alcohol dehydrogenase 150 kDa, bovine serum albumin 66 kDa)
protein,measurement,value
"E. coli AlaRS (enzyme, UniProt P00957 1-876, looked up, Escherichia coli alanyl-tRNA synthetase; calculated molecular mass of 96 kDa; Construct, tags and host are not described; The calculated mass of 96 kDa would fit the whole protein; also called EcAlaRS; source: purified) MSKSTAEIRQAFLDFFHSKGHQVVASSSLVPHNDPTLLFTNAGMNQFKDVFLGLDKRNYSRATTSQRCVRAGGKHNDLENVGYTARHHTFFEMLGNFSFGDYFKHDAIQFAWELLTSEKWFALPKERLWVTVYESDDEAYEIWEKEVGIPRERIIRIGDNKGAPYASDNFWQMGDTGPCGPCTEIFYDHGDHIWGGPPGSPEEDGDRYIEIWNIVFMQFNRQADGTMEPLPKPSVDTGMGLERIAAVLQHVNSNYDIDLFRTLIQAVAKVTGATDLSNKSLRVIADHIRSCAFLIADGVMPSNENRGYVLRRIIRRAVRHGNMLGAKETFFYKLVGPLIDVMGSAGEDLKRQQAQVEQVLKTEEEQFARTLERGLALLDEELAKLSGDTLDGETAFRLYDTYGFPVDLTADVCRERNIKVDEAGFEAAMEEQRRRAREASGFGADYNAMIRVDSASEFKGYDHLELNGKVTALFVDGKAVDAINAGQEAVVVLDQTPFYAESGGQVGDKGELKGANFSFAVEDTQKYGQAIGHIGKLAAGSLKVGDAVQADVDEARRARIRLNHSATHLMHAALRQVLGTHVSQKGSLVNDKVLRFDFSHNEAMKPEEIRAVEDLVNTQIRRNLPIETNIMDLEAAKAKGAMALFGEKYDERVRVLSMGDFSTELCGGTHASRTGDIGLFRIISESGTAAGVRRIEAVTGEGAIATVHADSDRLSEVAHLLKGDSNNLADKVRSVLERTRQLEKELQQLKEQAAAQESANLSSKAIDVNGVKLLVSELSGVEPKMLRTMVDDLKNQLGSTIIVLATVVEGKVSLIAGVSKDVTDRVKAGELIGMVAQQVGGKGGGRPDMAQAGGTDAAALPAALASVKGWVSAKLQ",binding result,binds
